Results: patent US9457082B2, “Liposome including complex of hydrophobic active ingredient and polypeptide and use of the liposome” (Samsung Electronics Co., Ltd., priority 2013, dated 2016)

Tested on: HepG2 liver carcinoma cells
Test: Cytotoxicity, cell viability by CCK-8 kit
Assay type: cell-based
Conditions: about 5,000 HepG2 cells, 37° C., 46 hours
Experimental: The liposomes prepared in the same manner as in Example 1 were incubated with cells to confirm cell proliferation.
The liposomes prepared in the same manner as in Example 1 were added in different concentrations to about 5,000 HepG2 liver carcinoma cells, followed by being incubated at a temperature of 37° C. for 46 hours. The viability of the cultured cells was measured using a CCK-8 kit (Dojindo), and the results were shown in FIG. 7 (●: albumin, ▪: complex containing SRF and albumin).

## albumin: albumin alone, control in the cytotoxicity test; Bovine Serum Albumin in Example 1
  toxicity (cell viability): not toxic
